Laboratory results: article PMC10160606, “Identification of GA20ox2 as a target of ATHB2 and TCP13 during shade response”

Target: T1, ATHB2 (UniProt Q05466 1-284)
T1 sequence: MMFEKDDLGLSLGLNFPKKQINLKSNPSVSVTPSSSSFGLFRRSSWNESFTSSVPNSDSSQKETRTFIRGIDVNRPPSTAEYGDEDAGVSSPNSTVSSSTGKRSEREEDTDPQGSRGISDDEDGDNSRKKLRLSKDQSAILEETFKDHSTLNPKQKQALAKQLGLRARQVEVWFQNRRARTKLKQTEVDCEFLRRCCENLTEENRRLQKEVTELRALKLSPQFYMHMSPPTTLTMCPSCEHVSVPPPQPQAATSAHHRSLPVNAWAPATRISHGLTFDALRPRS
Test: EMSA; 100x unlabeled identical oligonucleotide used as competitor in a separate lane; LightShift Chemiluminescent EMSA Kit (Thermo Fisher) per manufacturer; native gel; buffer, salt, pH and temperature not stated
Conditions: protein: recombinant; tags: 6xHis (pET-28a); chain copies: 2; label: 3' biotin on both strands; blunt

B1: GA20ox2 promoter ABS1 31-mer (dsDNA)
DNA 1: CAATTTGAAGACAATGTTAGGAATTAGTTAC
DNA 2: GTAACTAATTCCTAACATTGTCTTCAAATTG
- binding result: binds
